For assay [1], the target named is T1, human GCC (guanylyl cyclase C) (human, UniProt P25092 24-1073).
T1 construct: Target of the IHC on formalin-fixed, paraffin-embedded HEK293-GCC xenografts, GCC-transfected cell pellets and human colon tissues; also called hGCC; STAR
The assay is described as follows: automated IHC (TechMate) on FFPE colon tumors and cell pellets, antibody at 1.0 ug/ml overnight.

The target of assay [2] is T1, human GCC (guanylyl cyclase C). The assay can be described thus: IHC on FFPE GCC-transfected and parental cell pellets.

T1 sequence (P25092 24-1073 limits assumed): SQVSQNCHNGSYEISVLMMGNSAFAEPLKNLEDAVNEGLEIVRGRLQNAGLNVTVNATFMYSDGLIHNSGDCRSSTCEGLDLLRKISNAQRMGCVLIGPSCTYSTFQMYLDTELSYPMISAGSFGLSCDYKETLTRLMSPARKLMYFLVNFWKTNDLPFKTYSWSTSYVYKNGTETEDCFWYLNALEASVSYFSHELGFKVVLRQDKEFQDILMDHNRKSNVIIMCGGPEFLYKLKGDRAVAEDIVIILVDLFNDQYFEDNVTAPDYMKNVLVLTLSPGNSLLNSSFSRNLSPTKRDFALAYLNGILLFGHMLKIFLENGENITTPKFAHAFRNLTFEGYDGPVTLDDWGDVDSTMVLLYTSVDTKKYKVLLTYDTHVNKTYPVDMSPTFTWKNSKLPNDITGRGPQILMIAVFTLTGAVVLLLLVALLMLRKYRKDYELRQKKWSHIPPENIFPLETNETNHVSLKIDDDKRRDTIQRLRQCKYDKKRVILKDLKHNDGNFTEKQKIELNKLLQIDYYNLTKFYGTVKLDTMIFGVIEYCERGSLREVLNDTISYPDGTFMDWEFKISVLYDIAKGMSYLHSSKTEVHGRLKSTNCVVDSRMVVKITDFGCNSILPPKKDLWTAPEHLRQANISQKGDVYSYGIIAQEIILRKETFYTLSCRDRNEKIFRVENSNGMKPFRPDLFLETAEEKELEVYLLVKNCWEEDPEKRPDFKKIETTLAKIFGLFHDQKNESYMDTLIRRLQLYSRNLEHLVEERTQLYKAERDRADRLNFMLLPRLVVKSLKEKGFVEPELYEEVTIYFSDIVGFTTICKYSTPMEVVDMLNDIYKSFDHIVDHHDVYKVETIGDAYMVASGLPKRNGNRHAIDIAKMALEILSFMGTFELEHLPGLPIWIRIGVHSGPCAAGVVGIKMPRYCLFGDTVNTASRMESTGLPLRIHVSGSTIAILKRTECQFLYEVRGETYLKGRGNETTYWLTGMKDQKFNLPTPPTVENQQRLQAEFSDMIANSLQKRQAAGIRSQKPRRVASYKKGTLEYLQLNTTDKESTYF

B1: MIL-44-148-2 (antibody, V domains shown)
VH: QSVKESGGGLFKPTDTLTLTCTVSGFSLSSHRMNWVRQTPGKGLEWIAIITHNSITYYASWAKSRSTITRNTSENTVTLKMTSLTAADTATYFCAREDSMGYYFDLWGPGTLVTISS
VL: AYDMTQTPASVEVAVGGTVTIKCQASQSISNWLAWYQQKPGQSPKPLIYRASTLASGVSSRFRGSGSGTQFTLTISGVECADAATYYCQQTYTNNHLDNGFGGGTEVVVKG
notes: Rabbit monoclonal IgG from a rabbit-rabbit hybridoma
As to B1, in assay [1], the binding result is “binds”.

B2: MIL-44-67-4 (antibody, V domains shown)
VH: QSVEESGGRLVTPGTPLTLTCTASGSDISNYAISWVRQAPGKGLEFIGYISYGKSIYYASWAKGRFAISKTSSTTVDLEITSPTTEDTATYFCAREDSATYSPNLWGPGTLVTVSS
VL: AYDMTQTPASVEVAVGGTVTIKCQASQSINTYLAWYQQKPGQRPKLLIYRASTLASGVSSRFKGSGSGTEFTLTISGVECADAATYYCQQGYSYNNLDRAFGGGTEVVVTG
notes: Rabbit monoclonal IgG from a rabbit-rabbit hybridoma; also called MIL-44-67-4 antibody; subclone #67-4
For B2, the binding result in assay [2] is given as “binds”.

Source of the values: patent US9273146 (Takeda / Millennium, dated 2016).
